# Assay: soluble on expression in E. coli; label from the status in PepcDB or PDB records
row,Sequence,soluble on expression in E. coli
1,MSLADFTHLLRPSNFDELIGQDHLSKDKAPLRVLCQKGVLGHSFFFGPSGTGKTSIARIIAKTMELPFYEFNATSIKIEQLRAIFEQYKNTLQKPLIFIDEVHRLAKNQQEVLLPVMENNSALIIGASTENPFFSLTSAIRSRSMLFELHHISNEALSRLLRRALDSSDITCSDEALEYLIKSSGGDARSMLKLLEFASNIGTHITLDILKSLRPNALSVGSSEAGVHYDLSSAMIKSIRGSDMDAAIYYLARLIDGGESAEFIARRLVILASEDVGNANPQALTLATSAMTSVSKIGYPEARIILSQAVIYLCASPKEGHHHHHH,not soluble
2,MGSDKIHHHHHHMNNYNDTIRNLDNIVYKPNNLMITNVKEEKQNAEYAGCIFHLNNKTIRFRKSKITPNKIGQFVSFWEKGDNMQNQAFSYNAAPDLLVITCIDDNKLGQFIFPKEILLKEKILRTENQKGKMAMRIYPIWDTPVSNQAKKSQLWQIQYFVDLSNHNNLTIDELLNLYS,not soluble
3,MGSDKIHHHHHHMAVLITRPGERGERLVEMLNKAGIMALHLPLISIIAGQELNRLPNKLQQLNCGDYVVAVSKNAVEYAQKTLSAVGFCWRSDLYYFTVGQRTAEYFASQIENSVYYPVEQESSEGLLNLPQMQDLQARNILILRANGGREFFTEQAILRGAKVETLECYQRMPIEYNKLEKISLCQRIGVDTIVVTSQEMLNYLVKLVPTNETGWLFSCRLVTVSQRIAALAKSVGWTNIVVADKADNLSLFLALQQ,not soluble
4,MRQKLGNTDQAADLVQDTFIKLLQTRDELFGIKEPRAYLTSIAKNLLIDQVRRKRIEQAYLDGLSQMKYMLDAVASPEDQMQIIQAINQLCKALEGVSEKAQQAFILHYLEGYTHKEIAERLNVSTKMIQKYLASCLIQCYQNRQDMDACI,not soluble
5,MGHHHHHHGGHMSLPNFFTPEFGPLRGVRVITTGSIIAGPTAGTILADLGAEVIHVERPKVGDTLRVVPPYFEADGKRIGGEFVCVTRNKLSVALDIKSEEGRKIFYELLKHADIFIENLVWLEERYGITDKDMLEANPRLVIVHVSGFGRSEFGGEDEKCGRGSYDIISQAYSGWCKLAAPPGMEVHRLPLYIGDYVTALFGVIGALSAYVYAKETGRGQVVDVAQFEAIARVIEMYYTMYHNLGINREGEGLRVFNTQPYGLYRVKDGWIAIGAIGPGLYQRFIQALAKATGINPADYPYEECAASPEAVNSEKGRELDRIFNEYLMSHTKEEVEKLFNAFRVPCSRVSTPEDVVRDRHWIERGDIIEVLDETTGRLVKQVGIVPKFSETPGRIWRGPPKLGSDTKKVLKGLLNLSDEQIDELKAKGVVDFEGGS,soluble
6,MIPMNVTFEHDFQTMRESFFENAQEAFAILDKDLNFIDINKSFTESLKTGRDKLIGKNIIEFNSSIKNTERFRLYQKVLQTGESIILDDIRLHPNLGSYTIRVSCFKVGEGIGLAILNITDLRDAIDDLETFIYKCSHDMRTPVSNIYGLIQLALEDTKDPHTVEFLNMIKHQTDRLDHIIHQLANTSRLMHDNKIIYLVDLKTVVSDVIDSFSKIPDFEAIKFTVTSSSKEKFFSDKSLLICILENIIDNAIKYRNHDIQSLIDINMSDEKSGVRITIKDNGIGIDDDIQKNVFKMFYRGTNKSSGSGLGLYTVKHFIKKLKGEISLTSEKNTGTTFSFYIPNVNTDK,not soluble
7,MNHLTNQYVMLHDEKRCIGCQACTVACKVLNDVPEGFSRVQVQIRAPEQASNALTHFQFVRVSCQHCENAPCVSVCPTGASYRDENGIVQVDKSRCIGCDYCVAACPFHVRYLNPQTGVADKCNFCADTRLAAGQSPACVSVCPTDALKFGRLDESEIQRWVGQKEVYRQQEARSGAVSLYRRKEVHQEGKA,not soluble
8,GSAGDVTNDLSHVRKIIVACDAGMGSSAMGAGVLRKKIQDAGLSQISVTNSAINNLPPDVDLVITHRDLTERAMRQVPQAQHISLTNFLDSGLYTSLTERLVAAQRHTENEVKVKDSLKDSFDDS,soluble
9,MSLQNMETRYTHSPADIRHYSTEQLRDEFLVEKVFIPGAISLTYTHNDRMIFGGVTPTTEELEIILDKELGVDYFLERRELGVINIGGPGFIEIDGAKETMKKQDGYYIGKETKHVRFSSENPDNPAKFYISCVPAHHKYPNVKISIDEITPMETGDPLTLNQRKIYQYIHPNVCESCQLQMGYTILEPGSAWNTMPCHTHERRMEAYVYFDMEEDTRIFHMMGKPDETKHLVMSNEQAAISPSWSIHSGVGTSNYSFIWAMCGENITYTDMDMVAMDQLKEGHHHHHH,soluble
10,MSLTLSIPPSIQCQTEAACRLITRVTGDTLRAIHLYGSAVAGDLKPNSDIDLLVTICQPLTETQRATLMQELLALSSPPGASAEKRALEVTVVLYSQLVPWCFPPSREMQFGEWLREDIYQGIYEPAQQDWDMVLLITQILETSIPLKGERAERLFTPAPAAQLLKALRYPLDLWQSTADVQGDEYHIVLTLARIWYTLSTGRFTSKDAAADWLLPQLPEEYAATLRAAQREYLGLEQQDWHILLPAVVRFVDFAKAYIPTQFTEGHHHHHH,soluble
11,KATRDSSTLNVDTYVNWIKRVFRPQRLRLLERKELVVEEADYEYALGEIANVRSDAQQMLGSRIMSRPLPFIWLFGGDLSSQKELSVRVDTMVEYLHNTTDNLIFAKLMDVPPLPTTLSHWLPKDKRS,not soluble
12,MNALEPLFARLARSTFRSRFRLGIKERQYCWDKGAEVIDKHAADFIAQRLAPAHPANDGKQTPMRGHPVFIAQHATATCCRGCLAKWHQIPQGEPLSEAQQQYIVSVIHYWLVIQMNQR,not soluble
13,KLKNYKTSELMIQSSNNYKLESLFITSNIKTRDTMILVHGIGSSYYEMLKVAYRYLDKGYNVLVYNQRNTGNSGGDNYTFGLYERYDLDSLVKFVKNKFPEGRLGVHGFSMGAGTAAMHSEINSKDDKVDFYILDSPYSEMKDAIRMGVLEKRIPDILINYVVTCGDLYNKFKSGFWYSDVKPYESVEKSNVPILFIHGTKDTVCNYQNSKKMYDLVKHDKKDLWLIEGIGHVDGFEHDSTVYFNKIFKFIDSNVLSDKS,not soluble
14,NRRIVARLIGLGDSIDAIIKNDLSHPIVVDGNDEIGRLSEKLIEYGEKVQEIQRTNALSLINNTTASLITSDLNGVVESANLSARKLLKLGEVNESYPIWEYFPESCREQLKKVFDGSHLWIELGKIHVTLSLGDEKPKYVRFDIRPFAHGAEYKLIMTITDVTHQEMTTRTLESRVLEKTQDLLLKNQQLENEIEERIRTEDNLKKTQDELIQAAKMAVVGQTMTSLAHELNQPLNAMSTYLYSARMFLEQESPEKVGESITHIEGLATRMSKIINSLRQFARKPEGEREVKFVSVHEVAEQASTIVNTRAKRQQIIIENQLPDDVKVQGDMLALEQVFINVLVNSCDALMESTRDEQKRIQMALVERTSQTTLIAISDNGIGFGEEIVQRIFQPFVSTKEVGLGLGMNICKSLIEKHKGSIYLASSLEKGAMVVLELPNEQ,not soluble
15,MSEEKKDSSRPPVRNYLKQIDDFFEQTPLRNVIADLNHFFQKGNRLLTFPVDLYEVGEELVVTAELPGIQKEQIQIEIQSEYLKVSVKEEILEEEEQTSHNYYRRERSISEASRLIKLPYSINKKAAKASYQNGVLEIRAPKLPQQHDILSID,not soluble
16,GPGSMQSDFDNVETELRDIEETFTTGRMNAFGSASTQDAFVHELKRIAEIETQVFYRTCALLKSSHTNEHQLVTNMYASAQPPPQSQRSGPATTSPSSNLGDGSFRANSSGLESSMYRGPMNQRSQSSFASTVAGGLSGAPPSNSNIHSSSASRRQSRQGWENVSAGSPFPGVGDGGASSGAAPHIHRSEWGNEDGFADKAFEDVAAHFEELESQFFSLGDYLREISKHVIRLNDMSKQVNNGVNYGANGGVTGAPAAAANANGSSNNTDMLQTVGSMGRQDYPGSFIDPTSIGGGSGYGMDGPHS,soluble
17,MGHHHHHHSHMILEIRTKNFIFRTKHKLDFTPIGCDAKGRIVLGYTEAELCTRGSGYQFIHAADMLYCAESHIRMIKTGESGMIVFRLLTKNNRWTWVQSNARLLYKNGRPDYIIVTQRPLTDEEGTEHLRKRNTKLPFMF,soluble
18,MGSDKIHHHHHHMRFPMMELDEKIYRFFENRGRDVTVEYLNLGLGYTAVTTSDGGIGIAYTCFGAKESCSFMNSYYDFEGRPAVELLEKIKSTHPLERTMALALVNALNYEYALSLPEDKENRALFESFGIGEKTRVAMVGYFAPIAGMLGKMGALLEVIDISKKIGHQADFYDRLENWAQVAFITSTSILNSTTEDILRHAGKGVKTVMLGPSTPMIGEVFSHLPVHMLAGTVPLEKEKVLKAIRHGFGTREIQRFSRKSYLALF,not soluble
19,MAHHHHHHMFKTMMFKTMRNYFMLNFKRNYRHYSRKKNINNINRKMNDPYSDLYKMNYYGNNFKRLPNKKTKSNEYELIRTSSNSFTYSSPYPPNINYTLKPYPDSAKEFYYENRKYVMKYKNVEYIPIKRMVCKGMSRRSNWDTYYLRVEK,not soluble
20,MSLEAGAGAPLARYAAWRRAGDFIFLSGIIPVNPLTGTIVNGFQDVPEPVRELLGATGEFSTDAKQGPILAQSWYVLESIRRTVASAGGQMSDVIKLVQYFRNLDHFPYYSRVRKLFYPDQPPVSTVVQVSEMLPDATVLIEVEATVWLPPSFNSEAEGHHHHHH,soluble
21,MPTTIEREFEELDTQRRWQPLYLEIRNESHDYPHRVAKFPENRNRNRYRDVSPYDHSRVKLQNAENDYINASLVDIEEAQRSYILTQGPLPNTCCHFWLMVWQQKTKAVVMLNRIVEKESVKCAQYWPTDDQEMLFKETGFSVKLLSEDVKSYYTVHLLQLENINSGETRTISHFHYTTWPDFGVPESPASFLNFLFKVRESGSLNPDHGPAVIHCSAGIGRSGTFSLVDTCLVLMEKGDDINIKQVLLNMRKYRMGLIQTPDQLRFSYMAIIEGAKCIKGDSSIQKRWKELSKEDLSPAFDHSPNKIMTEKYN,soluble
22,MSLDGTVLLIDYFEYEREKTKIIFDNIGEYDFIEVENLKKFYSIFKDLDSITLIIMDIAFPVEKEGLEVLSAIRNNSRTANTPVIIATKSDNPGYRHAALKFKVSDYILKPYPTKRLENSVRSVLKICQRFRYEFDSAHVISMSIEDYISKEFKVASRAGQSLSVILMAPVGLEKEPSEQSTQISSELQDQIQNLAIEKVKLSLRSTDTAILNANRDILVILPFTNAAGAQKVLQKIQDNVREGLKSLNINYDDYYYAVSVTFPNDGKTFQSLMEKAVKKVEDKIMLEKITSIGVNILDNARNSYKKFNKEGHHHHHH,soluble
23,MGENSLWNVYKTVSFWKVMKNFIIIQIARYTPCLSVKNWLYRTFLRMKVGKKTSFALMVMPDIMFPEKITVGENSIIGYNTTLLAHEYLIREYRLGEIVIGNEVMIGANVTILPGVKIGDGATVSAGTLVHRDVPSGAFVGGNPMRIIYTLEHHHHHH,soluble
24,AFYINVVPDMVGGRLSSHDRDVLGLARQLAGAEGAVLAVVFGEHKETAFDSAGVDRLLLLDGNESDGYSPEQRVQGLRAVDNQFGPQRWVFPDSRTGGGELGRRFAASLGERPATRVWQVKGEHCTSRAGA,not soluble
25,MHYDVIVIGGGPSGLMAAIGAAEEGANVLLLDKGNKLGRKLAISGGGRCNVTNRLPLDEIVKHIPGNGRFLYSAFSIFNNEDIITFFENLGVKLKEEDPGRMFPVSNKAQSVVDALLTRLKDLGVKIRTNTPVETIEYENGQTKAVILQTGEVLETNHVVIAVGGKSVPQTGSTGDGYAWAEKAGHTITELFPTEVPILSNEPFIRDRSLQGLALRDINLSVLNPKGKAIISHKMDMLFTHFGLSGPAALRCSQFVVKALKKFKTNTIQMSIDALPEENSEQLFQRMLKQMKEDPKKGIKNVLKGYVPERYFLFLLEKNEIDGSEQAGQVSHEKIRALVKDFKEFTVNVNGTQSIEKAFVTGGGVSVKEINPKEMSSKFTNGLYFCGEVLDIHGYTGGYNITSALVTGRIAGTTAGENAKMQY,soluble

# — the DeepSol protein solubility set
